Sequences and labels used below:
B1: Mitogen-activated protein kinase 13 (Homo sapiens), O15264 (parent)
chain: MSLIRKKGFYKQDVNKTAWELPKTYVSPTHVGSGAYGSVCSAIDKRSGEKVAIKKLSRPFQSEIFAKRAYRELLLLKHMQHENVIGLLDVFTPASSLRNFYDFYLVMPFMQTDLQKIMGMEFSEEKIQYLVYQMLKGLKYIHSAGVVHRDLKPGNLAVNEDCELKILDFGLARHADAEMTGYVVTRWYRAPEVILSWMHYNQTVDIWSVGCIMAEMLTGKTLFKGKDYLDQLTQILKVTGVPGTEFVQKLNDKAAKSYIQSLPQTPRKDFTQLFPRASPQAADLLEKMLELDVDKRLTAAQALTHPFFEPFRDPEEETEAQQPFDDSLEHEKLTVDEWKQHIYKEIVNFSPIARKDSRRRSGMKL

Variants of B1 are the subject of this experiment. As to conditions: with stat3_human STAT3, P40763.
Chain of stat3_human STAT3, P40763 (P40763 whole entry): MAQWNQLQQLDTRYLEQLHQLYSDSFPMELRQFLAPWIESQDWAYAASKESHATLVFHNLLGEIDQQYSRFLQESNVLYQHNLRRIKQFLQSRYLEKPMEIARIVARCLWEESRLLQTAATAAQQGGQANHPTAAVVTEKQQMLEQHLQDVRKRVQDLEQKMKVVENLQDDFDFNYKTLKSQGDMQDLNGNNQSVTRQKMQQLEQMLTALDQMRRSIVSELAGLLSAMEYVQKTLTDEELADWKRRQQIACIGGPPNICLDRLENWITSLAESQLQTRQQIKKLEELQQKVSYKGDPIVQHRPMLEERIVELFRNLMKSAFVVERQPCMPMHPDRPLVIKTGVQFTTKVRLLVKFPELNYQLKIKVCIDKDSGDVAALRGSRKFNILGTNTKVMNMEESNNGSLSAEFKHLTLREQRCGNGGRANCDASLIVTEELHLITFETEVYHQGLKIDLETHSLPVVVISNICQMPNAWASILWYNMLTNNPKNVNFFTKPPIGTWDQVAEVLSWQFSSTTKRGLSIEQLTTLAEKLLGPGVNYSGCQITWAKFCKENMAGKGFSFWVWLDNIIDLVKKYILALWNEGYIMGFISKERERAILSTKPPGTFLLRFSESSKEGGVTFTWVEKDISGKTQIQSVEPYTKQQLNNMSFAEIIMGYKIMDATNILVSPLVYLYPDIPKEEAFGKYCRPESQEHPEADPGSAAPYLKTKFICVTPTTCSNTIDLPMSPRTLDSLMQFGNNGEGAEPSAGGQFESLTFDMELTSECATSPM
Take T180A;Y182A: the “effect of a mutation on the interaction” value was “with no effect”.

The record behind these values is IntAct's records for PubMed 32852592.
